In US20220411483A1 (Chugai, published 2022):
Numbering of substitutions follows the chain as printed.

B1: IL6R-P556/IL6R-L (antibody, human IgG1, kappa)
heavy: QVQLQESGPGLVKPSETLSLTCAVSGHSISHDHAWSWVRQPPGEGLEWIGFISYSGITNYNPSLQGRVTISRDNSKNTLYLQMNSLRAEDTAVYYCARSLARTTAMDYWGEGTLVTVSSASTKGPSVFPLAPSSKSTSGGTAALGCLVKDYFPEPVTVSWNSGALTSGVHTFPAVLQSSGLYSLSSVVTVPSSSLGTQTYICNVNHKPSNTKVDKKVEPKSCDKTHTCPPCPAPDLLGDDSVFLFPPKPKDTLMISRTPEVTCVVVDVSDEDGEVKFNWYVDGVEVHNAKTKPREEQYNSTYRVVSVLTVLHQDWLNGKEYKCKVSNKALPAPIEKTISKAKGQPREPQVYTLPPSRDELTKNQVSLTCLVKGFYPSDIAVEWESNGQPENNYKTTPPVLDSDGSFFLYSKLTVDKSRWQQGNVFSCSVMHEALHNHYTQKSLSLSP
light: not shown
B2: IL6R-P729/IL6R-L (antibody, human IgG1, kappa)
heavy: B1 heavy with D235E, L237F, D239Q, F243M, D270P, G273P, Y298E
light: not shown
B3: IL6R-P737/IL6R-L (antibody, human IgG1, kappa)
heavy: B1 heavy with D235E, D239Q, F243M, D270P, G273P, Y298E, S326H, A332H
light: not shown
B4: IL6R-P562/IL6R-L (antibody, human IgG1, kappa)
heavy: B1 heavy with D270E
light: not shown
B5: IL6R-P559/IL6R-L (antibody, human IgG1, kappa)
heavy: B1 heavy with D235E, D270E
light: not shown
B6: IL6R-P749/IL6R-L (antibody, human IgG1, kappa)
heavy: B1 heavy with D235E, D239Q, F243M, D270P, G273P, Y298E, K324E, A332H
light: not shown
B7: IL6R-P588/IL6R-L (antibody, human IgG1, kappa)
heavy: B1 heavy with D235E, D239G, V266I, S269A, D270E
light: not shown
B8: IL6R-P691/IL6R-L (antibody, human IgG1, kappa)
heavy: B1 heavy with D235E, L237F, D239Q, F243M, D270H, G273P, Y298E
light: not shown
B9: IL6R-P743/IL6R-L (antibody, human IgG1, kappa)
heavy: B1 heavy with D235E, D239G, D270H, G273P, A329G, A332S, P333S
light: not shown
B10: IL6R-P750/IL6R-L (antibody, human IgG1, kappa)
heavy: B1 heavy with D235E, L237F, D239Q, F243M, D270P, G273P, Y298E, K324A
light: not shown
B11: IL6R-P752/IL6R-L (antibody, human IgG1, kappa)
heavy: B1 heavy with D235E, L237F, D239Q, F243M, D270P, G273P, Y298E, K324A, S326H
light: not shown
B12: IL6R-P745/IL6R-L (antibody, human IgG1, kappa)
heavy: B1 heavy with D235E, D239G, D270H, G273P, S300A, K324E
light: not shown
B13: IL6R-P733/IL6R-L (antibody, human IgG1, kappa)
heavy: B1 heavy with D235E, L237F, D239Q, F243M, D270P, G273P, Y298E, S326H
light: not shown
B14: IL6R-P744/IL6R-L (antibody, human IgG1, kappa)
heavy: B1 heavy with D235E, D239G, D270H, G273P, S300A, K324A
light: not shown
B15: IL6R-P727/IL6R-L (antibody, human IgG1, kappa)
heavy: B1 heavy with D235E, D239Q, F243M, D270P, G273P, Y298E, A332H
light: not shown
B16: IL6R-P747/IL6R-L (antibody, human IgG1, kappa)
heavy: B1 heavy with D235E, L237F, D239Q, F243M, D270H, G273P, Y298E, K324E
light: not shown
B17: IL6R-P748/IL6R-L (antibody, human IgG1, kappa)
heavy: B1 heavy with D235E, D239Q, F243M, D270P, G273P, Y298E, K324A, A332H
light: not shown
B18: IL6R-P751/IL6R-L (antibody, human IgG1, kappa)
heavy: B1 heavy with D235E, L237F, D239Q, F243M, D270P, G273P, Y298E, K324E
light: not shown
B19: IL6R-P746/IL6R-L (antibody, human IgG1, kappa)
heavy: B1 heavy with D235E, L237F, D239Q, F243M, D270H, G273P, Y298E, K324A
light: not shown

target: T1, human FcγRIIa R type extracellular domain with C-terminal His tag (human, UniProt P12318 34-217); test: SPR, KD of IL6R-G1d/IL6R-L divided by KD of variant
T1 construct: extracellular domain; also called FcgRIIaR
T1 sequence (looked up): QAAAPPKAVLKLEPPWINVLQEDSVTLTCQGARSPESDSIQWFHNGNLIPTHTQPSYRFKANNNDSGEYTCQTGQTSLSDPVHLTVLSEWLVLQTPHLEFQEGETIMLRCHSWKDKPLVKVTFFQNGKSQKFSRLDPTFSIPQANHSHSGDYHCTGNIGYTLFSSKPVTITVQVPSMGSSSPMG

Row | Binder | Relative FcgRIIaR-binding Activity
1 | B1 | 0.46
2 | B2 | 0.07
3 | B3 | 0.03
4 | B4 | 0.55
5 | B5 | 0.46
6 | B6 | 0.05
7 | B7 | 0.69
8 | B8 | 0.04
9 | B9 | 0.06
10 | B10 | 0.02
11 | B11 | 0.03
12 | B12 | 0.04
13 | B13 | 0.08
14 | B14 | 0.06
15 | B15 | 0.03
16 | B16 | 0.04
17 | B17 | 0.03
18 | B18 | 0.06
19 | B19 | 0.06

target: T2, human FcγRIa extracellular domain with C-terminal His tag (human, UniProt P12314 16-292); test: as above
T2 construct: Whole entry named; also called FcgRIa
T2 sequence (P12314 16-292): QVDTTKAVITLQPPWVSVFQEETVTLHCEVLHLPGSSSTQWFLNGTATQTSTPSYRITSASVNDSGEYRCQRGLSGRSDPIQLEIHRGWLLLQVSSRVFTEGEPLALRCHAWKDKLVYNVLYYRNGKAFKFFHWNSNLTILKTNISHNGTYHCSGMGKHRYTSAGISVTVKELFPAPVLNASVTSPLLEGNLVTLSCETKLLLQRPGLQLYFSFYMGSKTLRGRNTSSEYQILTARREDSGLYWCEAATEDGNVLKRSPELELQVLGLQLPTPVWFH

Row | Binder | Relative FcgRIa-binding Activity
20 | B1 | 0.086
21 | B2 | 0.001
22 | B3 | 0.007
23 | B4 | 0.076
24 | B5 | 0.035
25 | B6 | 0.006
26 | B7 | 0.229
27 | B8 | 0.002
28 | B9 | 0.018
29 | B10 | 0.001
30 | B11 | 0.002
31 | B12 | 0.064
32 | B13 | 0.002
33 | B14 | 0.032
34 | B15 | 0.005
35 | B16 | 0.004
36 | B17 | 0.003
37 | B18 | 0.001
38 | B19 | 0.043

target: T3, human FcγRIIb extracellular domain with C-terminal His tag (human, UniProt P31994 43-217); test: as above
T3 construct: extracellular domain; also called FcgRIIb
T3 sequence (looked up): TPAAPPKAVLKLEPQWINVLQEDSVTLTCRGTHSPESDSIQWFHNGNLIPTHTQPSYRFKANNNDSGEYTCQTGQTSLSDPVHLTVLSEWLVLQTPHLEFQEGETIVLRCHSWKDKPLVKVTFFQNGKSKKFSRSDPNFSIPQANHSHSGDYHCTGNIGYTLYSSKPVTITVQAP

Row | Binder | Relative FcgRIIb-binding Activity
39 | B1 | 11.7
40 | B2 | 0.7
41 | B3 | 0.5
42 | B4 | 16.2
43 | B5 | 15
44 | B6 | 0.5
45 | B7 | 55.3
46 | B8 | 0.9
47 | B9 | 0.6
48 | B10 | 0.5
49 | B11 | 0.5
50 | B12 | 0.7
51 | B13 | 0.5
52 | B14 | 0.7
53 | B15 | 0.8
54 | B16 | 0.8
55 | B17 | 0.3
56 | B18 | 0.6
57 | B19 | 0.7

target: T4, human FcγRIIIa V type extracellular domain with C-terminal His tag (human, UniProt P08637 17-208); test: as above
T4 construct: extracellular domain; also called FcgRIIIaV
T4 sequence (P08637 17-208 F176V): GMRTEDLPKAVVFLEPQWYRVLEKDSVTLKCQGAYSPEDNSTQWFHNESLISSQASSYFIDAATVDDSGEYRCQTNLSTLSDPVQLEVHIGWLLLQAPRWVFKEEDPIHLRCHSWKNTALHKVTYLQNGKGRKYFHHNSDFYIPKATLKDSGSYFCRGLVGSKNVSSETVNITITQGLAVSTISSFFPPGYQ

Row | Binder | Relative FcgRIIIaV-binding Activity
58 | B1 | 0.007
59 | B2 | 0.006
60 | B3 | 0.007
61 | B4 | 0.007
62 | B5 | 0.009
63 | B6 | 0.004
64 | B7 | 0.011
65 | B8 | 0.004
66 | B9 | 0.006
67 | B10 | 0.006
68 | B11 | 0.006
69 | B12 | 0.007
70 | B13 | 0.007
71 | B14 | 0.007
72 | B15 | 0.007
73 | B16 | 0.006
74 | B17 | 0.005
75 | B18 | 0.007
76 | B19 | 0.005

target: T5, human FcγRIIa H type extracellular domain with C-terminal His tag (human, UniProt P12318 34-217); test: as above
T5 construct: extracellular domain; also called FcgRIIaH
T5 sequence (looked up): T1 sequence (looked up) with R134H

Row | Binder | Relative FcgRIIaH-binding Activity
77 | B1 | 0.019
78 | B2 | 0.013
79 | B3 | 0.016
80 | B4 | 0.022
81 | B5 | 0.021
82 | B6 | 0.009
83 | B7 | 0.034
84 | B8 | 0.01
85 | B9 | 0.013
86 | B10 | 0.013
87 | B11 | 0.013
88 | B12 | 0.014
89 | B13 | 0.014
90 | B14 | 0.013
91 | B15 | 0.015
92 | B16 | 0.012
93 | B17 | 0.01
94 | B18 | 0.013
95 | B19 | 0.01

target: T1, human FcγRIIa R type extracellular …; test: SPR, antibody captured, FcgR analyte

Row | Binder | Kd [nM]
96 | B1 | 2400
97 | B2 | 16000
98 | B3 | 37000
99 | B4 | 2000
100 | B5 | 2400
101 | B6 | 22000
102 | B7 | 1600
103 | B8 | 28000
104 | B9 | 20000
105 | B10 | 49000
106 | B11 | 41000
107 | B12 | 26000
108 | B13 | 13000
109 | B14 | 18000
110 | B15 | 34000
111 | B16 | 27000
112 | B17 | 39000
113 | B18 | 19000
114 | B19 | 18000

target: T2, human FcγRIa extracellular domain with …; test: SPR, antibody captured, FcgR analyte

Row | Binder | Kd [nM]
115 | B1 | 3.7
116 | B2 | 220
117 | B3 | 46
118 | B4 | 4.2
119 | B5 | 9.1
120 | B6 | 52
121 | B7 | 1.4
122 | B8 | 130
123 | B9 | 18
124 | B10 | 230
125 | B11 | 150
126 | B12 | 5
127 | B13 | 200
128 | B14 | 10
129 | B15 | 71
130 | B16 | 90
131 | B17 | 100
132 | B18 | 240
133 | B19 | 7.4

target: T3, human FcγRIIb extracellular domain with …; test: SPR, antibody captured, FcgR analyte

Row | Binder | Kd [nM]
134 | B1 | 180
135 | B2 | 3000
136 | B3 | 4300
137 | B4 | 130
138 | B5 | 140
139 | B6 | 4000
140 | B7 | 38
141 | B8 | 2300
142 | B9 | 3600
143 | B10 | 4000
144 | B11 | 4200
145 | B12 | 3100
146 | B13 | 4500
147 | B14 | 3200
148 | B15 | 2700
149 | B16 | 2700
150 | B17 | 6200
151 | B18 | 3500
152 | B19 | 3000
